Data: paper PMC3762337

Target: Dyn1_(387kD) (S. cerevisiae) (UniProt P36022)
Assay: single-molecule GFP fluorescence intensity; GFP-tagged motors on surface-immobilised Cy5 MTs, with ATP or apyrase, 5 min; intensities of GFP spots compared with GST-Dyn1 331kD

- stoichiometry N: 2
Substance: Dyn1_(387kD), P36022 732-4092
